Measurements reported in the supplement of paper PMC10567573.

B1: TRIM35 (parent)
chain: DKELLCCSCQADPRHQGHRVQPVK
B2: TRIB1 (parent)
chain: SYVRSRKRLREEEAARLFKQIVSA

Variants of: B1
Experiment: protein stability index of a GFP-peptide fusion (GPS, HEK-293T) (PSI 1-6); higher = more stable
Settings: c terminus: a fixed tail appended
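Also: lentivirally expressed fusions sorted by FACS into six bins by GFP to DsRed ratio, PSI derived from sequencing read proportions per bin multiplied by bin number.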

Protein stability index, by site and new letter:
K2: A 3.54; I 2.84; G 3.05; Y 3.2; D 3.46; L 3.18; V 3.53; W 4.1; S 3.87; Q 3.78; R 3.12; C 4.2; F 2.63; T 3.79; N 3.95; H 3.51; E 4.01; M 3.65; P 3.19
D1: R 2.71; C 3.49; I 2.38; W 1.87; A 3.15; F 2.79; M 3.67; H 3.02; S 3.31; P 3.49; Y 2.11; K 3.46; E 4.13; N 3.77; T 3.71; Q 3.59; V 3.06
L4: M 3.9; H 4.08; D 4.47; I 2.52; K 4.07; C 4.27; A 3.86; F 3.31; G 4.47; E 3.41
E3: W 1.93; T 3.72; L 2.11; Q 3.73; H 2.47; K 3.52; A 2.92; R 2.81; N 3.68; D 3.4; V 2.45; M 2.12; C 2.26; S 3.94; G 2.43; Y 2.46; P 3.09; I 2.51; F 2.34

Variants of: B2
Experiment: as above
Settings: c terminus: a fixed tail appended

Protein stability index, by site and new letter:
Q20: F 1.61; A 1.8; L 1.32; M 2.17; E 2.4; W 1.46; N 2.64; G 2.52; H 1.54; D 2.08; T 2.37; P 3.03; Y 1.13; S 2.27; C 1.43; V 1.04; R 1.95; I 1.43; K 2.15
F18: A 3.44; G 3.92; R 3.74; N 3.1; M 3.34; Y 2.08; S 3.42; D 3.83; H 4.19; I 2.06; E 3.02; W 2.56; P 3.99; L 1.52; C 3.31; V 2.86; T 3.84; Q 4.07
R10: W 2.12; A 2.94; V 1.69; Y 1.95; D 2.28; I 1.83; E 2.27; T 2.67; G 3.19; K 3.08; C 1.5; P 2.28; H 2.63; L 2.23; Q 2.22; F 2.04; M 1.35; S 2.34; N 2.54
A15: F 1.59; H 2.08; Y 1.71; E 2.56; S 2.36; L 2.05; R 2.62; K 1.96; M 2.68; G 2.56; C 1.93; V 1.84; N 2.48; W 1.74; Q 2.15; P 3.43; I 1.4; T 2.08; D 2.32
K19: R 1.85; S 2.31; E 2.06; Q 2.21; Y 2.02; C 2.34; H 1.69; M 2.43; T 2.04; L 1.33; I 2.91; P 2.81; F 2.71; D 2.25; N 1.7
I21: R 3.8; K 3.27; T 3.48; N 4.01; Y 2.06; W 3.98; E 3.23; M 2.47; H 2.4; S 3.66; L 1.39; F 2.2; Q 2.06; P 3.76; D 4.08; V 2.34
E11: A 2.05; K 2.25; H 2.41; W 2.05; Y 1.22; V 1.75; I 1.4; N 2.13; T 2.44; S 2.69; R 1.54; D 2.17; G 1.33; M 1.66; Q 1.9; P 1.85; F 3.54
A14: I 2.4; G 3.38; E 2.85; W 2.11; R 3.17; L 2.03; K 2.64; H 2.26; D 1.59; N 1.89; V 2.09; Q 2.99; C 2.24; M 1.81; F 2.34; T 2.83; Y 2.18; S 3.24; P 2.56
S23: Q 1.94; A 2.01; L 2.18; R 1.99; P 2.99; N 2.32; T 1.75; G 1.9; C 1.63; W 1.07; E 2.56; F 2.07; Y 1.73; K 2.3; M 2.87; D 3.05; I 1.48; H 1.8
E13: D 1.73; S 2.05; N 2.53; T 1.74; K 2.94; H 2.47; R 2.85; M 2.21; F 2.37; C 2.05; I 2.52; Y 2.14; L 2.54; P 2.41; Q 2.5; G 3.21; A 1.27; V 1.65
V22: W 3.04; G 3.11; R 3.3; H 2.23; S 2.62; I 2.94; N 2.86; L 2.54; C 2.13; P 3.72; T 2.94; Q 3.34; A 2.58; F 1.83; Y 1.49; M 2.45; D 3.22
L9: T 2.24; Y 2; V 1.75; W 2.56; S 2.44
R16: L 1.93; E 2.87; F 2.66; K 2.31; I 1.37; S 1.72; G 2.41; T 2.57; Q 2.63; A 1.9; M 2.52; Y 2.32; V 2.53; D 2.17; H 2.2; N 2.58; P 3.39; C 2.01
E12: H 3.01; K 2.27; N 2.61; C 1.76; P 2.03; I 2.65; D 1.9; M 2.48; L 2; T 2.03; A 2.16; V 1.33; Q 1.98; Y 2.37
A24: T 2.47; E 1.99; P 2.63; Y 2.32; Q 2.18; K 2.97; D 2.76; N 3.37; G 3.39; H 2.58; R 2.01; C 2.99; V 2.61; F 2.26; M 1.14; W 2; I 2.88; L 1.65; S 2.08
L17: N 3.21; Q 2.1; P 3.97; F 1.6; E 3.46; M 2.03; S 2.62; D 3.46; A 2.49; W 2.24; K 2.61; G 3.72; V 2.98; C 2.52; Y 2.61; R 2.1; T 2.87; H 2.48
